Test results taken from patent US20260132192A1 (XBIOTECH, published 2026).

Molecular target: T1, recombinant human IL-1α (human, UniProt P01583 113-271)
T1 sequence (looked up): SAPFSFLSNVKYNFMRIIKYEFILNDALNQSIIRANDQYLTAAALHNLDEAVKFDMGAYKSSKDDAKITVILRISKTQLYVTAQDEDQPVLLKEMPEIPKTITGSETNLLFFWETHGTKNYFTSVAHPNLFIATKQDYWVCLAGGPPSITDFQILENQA
Assay: cell-based or functional assay

B1: human monoclonal antibody designated XIA12 (antibody, V domains shown)
VH: QVQLVQSGAEVKKPGSSVKVSCKASGGRFTNYAILWVRQAPGQGLQWLGGIIPIFDETDHAQDFQDRLTITVDESMTTAYMELSSLRPEDTAIYYCATGSNSYYGLYWGQGTLVTVSS
VL: DIVMTQSPDFLAVSLGERATINCKSSQSVLYSSDNKNYLAWYQQKAGQPPKLLIYWASTRESGVPDRFSGSGSATDFTLTISSLQAEDVAVYYCQQYYSLPITFGQGTRLEIKR
HUVEC-based potency assay; ICAM-1 expression by flow cytometry after hIL-1α stimulation; IC50: 0.0187 µg/mL
